Assay results from patent publication US20140309175A1.

Molecular target: C1-Esterase (UniProt P09871)
Experiment: cell-based or functional assay

Chain of C1-Esterase (P09871 16-688 limits assumed): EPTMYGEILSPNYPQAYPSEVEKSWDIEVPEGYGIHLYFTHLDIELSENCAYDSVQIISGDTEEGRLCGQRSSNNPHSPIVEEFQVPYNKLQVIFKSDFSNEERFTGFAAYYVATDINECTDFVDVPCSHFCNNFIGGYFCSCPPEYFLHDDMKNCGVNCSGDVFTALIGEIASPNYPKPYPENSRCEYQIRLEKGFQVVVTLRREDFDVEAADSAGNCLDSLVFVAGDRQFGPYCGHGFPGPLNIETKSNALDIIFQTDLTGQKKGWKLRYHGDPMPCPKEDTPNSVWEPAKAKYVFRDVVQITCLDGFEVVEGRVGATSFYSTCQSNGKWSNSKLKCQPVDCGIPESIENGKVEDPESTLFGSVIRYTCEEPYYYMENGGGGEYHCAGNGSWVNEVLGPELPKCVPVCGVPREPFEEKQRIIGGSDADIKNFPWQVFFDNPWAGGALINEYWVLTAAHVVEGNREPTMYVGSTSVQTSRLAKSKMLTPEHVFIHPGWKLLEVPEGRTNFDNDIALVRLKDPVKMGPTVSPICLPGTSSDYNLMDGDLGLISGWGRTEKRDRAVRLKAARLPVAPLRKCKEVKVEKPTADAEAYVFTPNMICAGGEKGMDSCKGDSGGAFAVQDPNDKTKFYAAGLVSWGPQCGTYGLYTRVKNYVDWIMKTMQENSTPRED

in vitro C1 inhibitory activity [U/mg]	in vitro C1 inhibitory activity, percent of native C1 inhibitor [%]	Substance
6.1	86	Mal-PEG-C1 INH (C1 esterase inhibitor PEGylated with 40 kDa maleimide mPEG) (from UniProt P05155 23-500)
3.3	47	Mal-U-PEG-C1 INH (C1 inhibitor PEGylated with branched 40k mPEG-maleimide) (from UniProt P05155 23-500)
